Biological target: K63-di-Ub (UniProt P0CG47)
Experiment: ITC

Substance | Kd [µM]
Cezanne2 UBA (1-88 aa), GST cleaved (from UniProt Q8TE49 1-88) (domain or fragment) | 20
Cezanne UBA (1-66 aa), GST cleaved (from UniProt Q6GQQ9 1-66) (domain or fragment) | 20
Rap80 UIMs (60-144 amino acids), GST cleaved (from UniProt Q96RL1 60-144) (domain or fragment) | 6.4
